In publication PMC6138665, “HUWE1 E3 ligase promotes PINK1/PARKIN-independent mitophagy by regulating AMBRA1 activation via IKKα” (Nature Communications, 2018):
Non-standard residues stand in square brackets, D forms with d. No end group written: not given here. pS = N[C@@H](COP(=O)(O)O)C(=O)O

B1: AMBRA1-LIR peptide, unphosphorylated (P0) (peptide)
peptide: EALNSGVEYYWDQLNET
notes: limits counted from S1014 as the fifth letter; also called unmodified AMBRA1-LIR; source: synthetic peptide, bought: GenScript
B2: AMBRA1-LIR peptide, S1014 phosphorylated (P1) (peptide)
peptide: EALN[pS]GVEYYWDQLNET
notes: limits counted from S1014 as the fifth letter; also called S1014-phosphorylated AMBRA1-LIR peptide; source: synthetic peptide, bought: GenScript

Assays:
[1] = molecular target: LC3B protein (recombinant) (UniProt Q9GZQ8 1-120); assay: ITC; peptides at 0.35 mM titrated into 0.015 mM LC3 and GABARAP proteins in 21 steps; MicroCal VP-ITC; 25 °C and 35 °C (the LC3B titrations of Fig. 4a at 35 °C); 50 mM Na2HPO4, 100 mM NaCl, pH 7.0; one-site binding model; conditions: both partners purified
[2] = molecular target: T1, GABARAP protein (recombinant) (UniProt O95166 1-117); assay: as above; conditions: both partners purified
T1 construct: GABARAP, one of the six mATG8 proteins; CSPs were mapped on PDB 1GNU; source: unlabelled or 15N-labelled
T1 sequence (O95166 whole entry): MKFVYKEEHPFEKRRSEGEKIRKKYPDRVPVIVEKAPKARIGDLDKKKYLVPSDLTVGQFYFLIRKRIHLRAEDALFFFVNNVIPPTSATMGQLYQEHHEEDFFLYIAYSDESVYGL

Binder	Kd [1] [µM]	Kd [2] [µM]
B1	> 100	~40
B2	53	21
